Settings: Bos taurus, pH 7, K2HPO4 5 mM, transition: 2, reversible: Yes, whole UniProt chain shown; for Tm: Thermal

B1: Cytochrome b5 wild type, P00171 (protein)
chain: MAEESSKAVKYYTLEEIQKHNNSKSTWLILHYKVYDLTKFLEEHPGGEEVLREQAGGDATENFEDVGHSTDARELSKTFIIGELHPDDRSKITKPSESIITTIDSNPSWWTNWLIPAISALFVALIYHLYTSEN
- denaturant m value (25 °C, Urea, Absorbance): 1.26 kcal/mol/M
- denaturant midpoint (higher = more stable) (25 °C, Urea, Absorbance): 6.9 M
- unfolding free energy (25 °C, Urea, Absorbance): 8.7 kcal/mol
- Tm (Absorbance): 75.2 °C
- Tm (Fluorescence): 50.1 °C
